Patent US20170088632A1 (OMEROS, published 2017)
Positions count from the first letter of the chain named. Names and notes keep the numbering of the source.

Assays:
human MASP-2 [1] = target: T1, human MASP-2 (human, UniProt O00187 16-686); assay: titration ELISA on MASP-2 (10 µg/ml)
T1 construct: also called hMASP-2; recombinant human MASP-2

human MASP-2 [2] = target: T1, human MASP-2; assay: cell-based or functional assay
[3] = target: T2, African Green monkey MASP-2 (in African Green monkey serum) (African Green monkey); assay: cell-based or functional assay
human MASP-2 [4] = target: T1, human MASP-2; assay: cell-based or functional assay; remark: listed apart in the source
[5] = target: T3, human MASP-2A (catalytically inactive human MASP-2, Ser618 to Ala618) (human, UniProt O00187 16-686); assay: SPR (Biacore), MASP-2A amine coupled to CM5 chip, scFv monomer in solution
T3 construct: the ELISA and Biacore methods say only 'MASP-2A', so a tag may have been present; also called huMASP2A; huMASP-2A

[6] = target: T2, African Green monkey MASP-2 (in African …); assay: cell-based or functional assay; remark: listed apart in the source
[7] = target: rat MASP-2 (in rat serum) (rat, UniProt Q9JJS8 20-685); assay: cell-based or functional assay
human MASP-2 [8] = target: T1, human MASP-2; assay: cell-based or functional assay; remark: listed apart in the source
human MASP-2 [9] = target: T1, human MASP-2; assay: cell-based or functional assay; remark: listed apart in the source
[10] = target: T2, African Green monkey MASP-2 (in African …); assay: cell-based or functional assay; remark: listed apart in the source
human MASP-2 [11] = target: T1, human MASP-2; assay: cell-based or functional assay; remark: listed apart in the source
human MASP-2 [12] = target: T1, human MASP-2; assay: selectivity for human MASP-2 over C1s (method not detailed; see FIG. 16)
human MASP-2 [13] = target: T1, human MASP-2; assay: cell-based or functional assay; remark: listed apart in the source
human MASP-2 [14] = target: T1, human MASP-2; assay: cell-based or functional assay; remark: listed apart in the source

T1 sequence (O00187 16-686): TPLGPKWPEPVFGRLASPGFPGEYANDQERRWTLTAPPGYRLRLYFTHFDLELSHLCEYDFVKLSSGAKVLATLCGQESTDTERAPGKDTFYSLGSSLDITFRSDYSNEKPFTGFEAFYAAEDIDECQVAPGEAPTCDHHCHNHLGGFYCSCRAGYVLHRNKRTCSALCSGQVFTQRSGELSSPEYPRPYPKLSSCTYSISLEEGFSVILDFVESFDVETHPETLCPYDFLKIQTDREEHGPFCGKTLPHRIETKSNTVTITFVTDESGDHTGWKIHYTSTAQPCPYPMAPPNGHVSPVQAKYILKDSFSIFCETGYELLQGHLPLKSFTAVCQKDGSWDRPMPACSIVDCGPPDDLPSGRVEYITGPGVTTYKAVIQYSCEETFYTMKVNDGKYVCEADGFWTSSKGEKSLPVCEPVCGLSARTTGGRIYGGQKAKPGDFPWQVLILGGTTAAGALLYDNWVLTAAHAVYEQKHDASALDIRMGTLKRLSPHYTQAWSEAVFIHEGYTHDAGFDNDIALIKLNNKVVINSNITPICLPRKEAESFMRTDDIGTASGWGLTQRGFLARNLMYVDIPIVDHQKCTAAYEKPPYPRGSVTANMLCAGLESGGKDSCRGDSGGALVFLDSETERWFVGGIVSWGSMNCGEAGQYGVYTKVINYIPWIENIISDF
Chain of rat MASP-2 (in rat serum) (Q9JJS8 other isoform, or with tags, fused parts or gaps limits assumed): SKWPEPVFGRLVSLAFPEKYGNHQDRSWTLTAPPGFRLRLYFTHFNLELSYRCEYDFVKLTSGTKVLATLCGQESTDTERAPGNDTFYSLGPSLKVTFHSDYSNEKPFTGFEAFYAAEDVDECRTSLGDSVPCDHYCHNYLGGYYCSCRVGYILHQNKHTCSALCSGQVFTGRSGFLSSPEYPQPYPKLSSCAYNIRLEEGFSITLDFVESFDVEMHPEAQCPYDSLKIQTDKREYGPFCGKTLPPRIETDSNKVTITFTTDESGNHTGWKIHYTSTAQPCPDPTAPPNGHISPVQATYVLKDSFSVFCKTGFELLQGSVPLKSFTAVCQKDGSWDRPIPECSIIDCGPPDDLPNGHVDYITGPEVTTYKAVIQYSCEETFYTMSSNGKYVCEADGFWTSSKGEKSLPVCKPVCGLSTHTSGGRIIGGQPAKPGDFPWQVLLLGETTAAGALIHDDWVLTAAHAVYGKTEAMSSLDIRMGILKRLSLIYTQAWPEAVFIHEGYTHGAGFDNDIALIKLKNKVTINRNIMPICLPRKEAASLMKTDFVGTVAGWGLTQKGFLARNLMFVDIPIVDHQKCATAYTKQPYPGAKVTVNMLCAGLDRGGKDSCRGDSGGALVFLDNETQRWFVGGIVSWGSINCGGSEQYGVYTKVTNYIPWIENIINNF
T3 sequence (O00187 16-686 S633A): as the sequence (O00187 16-686) above, with S618A counted along it

B1: scFv mutagenesis clone #35 of 17D20 (scFv)
scFv: QVTLKESGPVLVKPTETLTLTCTVSGFSLSRGKMGVSWIRQPPGKALEWLAHIFSSDEKSYRTSLKSRLTISKDTSKNQVVLTMTNMDPVDTATYYCARIRRGGIDYWGQGTLVTVSSKLSGSASAPKLEEGEFSEARVQPVLTQPPSVSVSPGQTASITCSGDKLGDKFAYWYQQKPGHSPVLVIYQDNKRPSGIPGRFSGSNSGNTATLTISGTQAMDEADYYCQAWDSSTAVFGTGTKVTVLAAAGSEQKLISEEDLNSHHHHHH
notes: the mother scFv entry is used with this change; also called 17D20md#35 (monomer); 17D20md35
Kd (human MASP-2 [1]): 1.2 nM

B2: scFv mother clone 3F22 (scFv)
scFv: QVQLQQSGPGLVKPSQTLSLTCAISGDSVSSNSAAWNWIRQSPSRGLEWLGRTYYRSKWYNDYAVSVKSRITINPDTSKNQFSLQLNSVTPEDTAVYYCARDPFGVPFDIWGQGTMVTVSSKLSGSASAPKLEEGEFSEARVSYVLTQPPSVSVAPGQTARVTCGGNNIRSKNVHWYQQKPGQAPVLVVYDDTDRPSGIPERFSGSNSGNTATLTVSRVEAGDEADYYCQVWDTTTDHVVFGGGTKLTVLAAAGSEQKLISEEDLNSHHHHHH
Inhibitory activity in Human Serum IC50 (C3b deposition, 0.5% human serum) (human MASP-2 [2]): 20.6 nM
Functional IC50, C3b deposition, non-human primate serum Exp #1 [3]: 114 nM
Functional IC50, C3b deposition, non-human primate serum Exp #2 [3]: 173 nM
Functional IC50, C3b deposition, human serum Exp #1 (human MASP-2 [4]): 20.6 nM
Functional IC50, C3b deposition, human serum Exp #2 (human MASP-2 [4]): 36.7 nM
Functional IC50, C3b deposition, human serum Exp #3 (human MASP-2 [4]): 41.4 nM
Functional IC50, C3b deposition, human serum Exp #4 (human MASP-2 [4]): 68.8 nM

B3: scFv mother clone 9P13 (scFv)
scFv: B2 scFv with V145E, P149L, L247V
Inhibitory activity in Human Serum IC50 (C3b deposition, 0.5% human serum) (human MASP-2 [2]): 28.9 nM
Kd [5]: 220 nM
Functional IC50, C3b deposition, non-human primate serum Exp #1 [3]: 99.3 nM
Functional IC50, C3b deposition, non-human primate serum Exp #2 [3]: 77.1 nM
Functional IC50, C3b deposition, human serum Exp #1 (human MASP-2 [4]): 28.9 nM
Functional IC50, C3b deposition, human serum Exp #2 (human MASP-2 [4]): 120 nM
Functional IC50, C3b deposition, human serum Exp #3 (human MASP-2 [4]): 17.3 nM
Functional IC50, C3b deposition, human serum Exp #4 (human MASP-2 [4]): 24.3 nM

B4: MoAb #4 (OMS644), 17D20_3521N11 IgG2 (antibody)
heavy: QVTLKESGPVLVKPTETLTLTCTVSGFSLSRGKMGVSWIRQPPGKALEWLAHIFSSDEKSYRTSLKSRLTISKDTSKNQVVLTMTNMDPVDTATYYCARIRRGGIDYWGQGTLVTVSSASTKGPSVFPLAPCSRSTSESTAALGCLVKDYFPEPVTVSWNSGALTSGVHTFPAVLQSSGLYSLSSVVTVPSSNFGTQTYTCNVDHKPSNTKVDKTVERKCCVECPPCPAPPVAGPSVFLFPPKPKDTLMISRTPEVTCVVVDVSHEDPEVQFNWYVDGVEVHNAKTKPREEQFNSTFRVVSVLTVVHQDWLNGKEYKCKVSNKGLPAPIEKTISKTKGQPREPQVYTLPPSREEMTKNQVSLTCLVKGFYPSDIAVEWESNGQPENNYKTTPPMLDSDGSFFLYSKLTVDKSRWQQGNVFSCSVMHEALHNHYTQKSLSLSPGK
light: QPVLTQPPSLSVSPGQTASITCSGEKLGDKYAYWYQQKPGQSPVLVMYQDKQRPSGIPERFSGSNSGNTATLTISGTQAMDEADYYCQAWDSSTAVFGGGTKLTVLGQPKAAPSVTLFPPSSEELQANKATLVCLISDFYPGAVTVAWKADSSPVKAGVETTTPSKQSNNKYAASSYLSLTPEQWKSHRSYSCQVTHEGSTVEKTVAPTECS
African Green Monkey C3 assay IC50 [6]: 18 nM

B5: MoAb #5 (OMS645), 17D20_3521N11 IgG4 (antibody)
heavy: not shown
light: B4 light
African Green Monkey C3 assay IC50 [6]: 16 nM
Inhibition of Rat C3b IC50 [7]: 500 nM

B6: MoAb #6 (OMS646), 17D20_3521N11 IgG4 mutant (S228P hinge) (antibody)
heavy: not shown
light: B4 light
African Green Monkey C3 assay IC50 [6]: 14 nM
Inhibition of Rat C3b IC50 [7]: > 500 nM

B7: 18L16 mother clone, wild type IgG4 format (antibody, V domains shown)
VH: QVTLKESGPVLVKPTETLTLTCTVSGFSLSNARMGVSWIRQPPGKALEWLAHIFSNDEKSYSTSLKSRLTISKDTSKSQVVLTMTNMDPVDTATYYCARMAILTAGGMDVWGQGTTVTVS
VL: LTQPPSVSASPGQTASITCSGDKLGDKYVSWYQQKPGRSPVLVIYRDTKRPSGIPERFSGSNYGNTATLTISGTQAVDEADYYCQAWDSGSGVFGGGTKVTVLA
C3b deposition assay in 1% human serum, IC50 (human MASP-2 [8]): 59 nM
C3 convertase assay using 1% human serum, IC50 (first experiment) (human MASP-2 [9]): 33.9 nM
C3 convertase assay using 1% human serum, IC50 (second experiment) (human MASP-2 [9]): 22 nM
C3 convertase assay using 1% human serum, fold improvement of IC50 (scFv to divalent form), first experiment (human MASP-2 [9]): ~4.7 fold
C3 convertase assay using 1% human serum, fold improvement of IC50 (scFv to divalent form), second experiment (human MASP-2 [9]): ~8.7 fold

B8: scFv mother clone 18L16 (scFv)
scFv: QVTLKESGPVLVKPTETLTLTCTVSGFSLSNARMGVSWIRQPPGKALEWLAHIFSNDEKSYSTSLKSRLTISKDTSKSQVVLTMTNMDPVDTATYYCARMAILTAGGMDVWGQGTTVTVSSKLSGSASAPKLEEGEFSEARVSYVLTQPPSVSASPGQTASITCSGDKLGDKYVSWYQQKPGRSPVLVIYRDTKRPSGIPERFSGSNYGNTATLTISGTQAVDEADYYCQAWDSGSGVFGGGTKVTVLAAAGSEQKLISEEDLNSHHHHHH
Inhibitory activity in Human Serum IC50 (C3b deposition, 0.5% human serum) (human MASP-2 [2]): 6.1 nM
C3 Assay IC50, non-human primate serum Exp #1 [10]: 65 nM
C3 Assay IC50, non-human primate serum Exp #2 [10]: 154 nM
C3 Assay IC50, non-human primate serum mean [10]: 110 nM
C3 Assay IC50 in dilute serum (1%), human serum Exp #1 (human MASP-2 [11]): 53 nM
C3 Assay IC50 in dilute serum (1%), human serum Exp #2 (human MASP-2 [11]): 52 nM
C3 Assay IC50 in dilute serum (1%), human serum Exp #3 (human MASP-2 [11]): 97 nM
C3 Assay IC50 in dilute serum (1%), human serum mean (human MASP-2 [11]): 67 nM
Functional IC50, C3b deposition, non-human primate serum Exp #1 [3]: 65.6 nM
Functional IC50, C3b deposition, non-human primate serum Exp #2 [3]: 128 nM
Functional IC50, C3b deposition, human serum Exp #1 (human MASP-2 [4]): 6.1 nM
Functional IC50, C3b deposition, human serum Exp #2 (human MASP-2 [4]): 96.8 nM
Functional IC50, C3b deposition, human serum Exp #3 (human MASP-2 [4]): 52.3 nM
Functional IC50, C3b deposition, human serum Exp #4 (human MASP-2 [4]): 53.5 nM
C3 convertase assay using 1% human serum, IC50 (first experiment) (human MASP-2 [9]): 160 nM
C3 convertase assay using 1% human serum, IC50 (second experiment) (human MASP-2 [9]): 193 nM

B9: MoAb #1 (OMS641), 17N16m_d17N9 IgG2 (antibody)
heavy: QVQLQQSGPGLVKPSQTLSLTCAISGDSVSSTSAAWNWIRQSPSRGLEWLGRTYYRSKWYNDYAVSVKSRITINPDTSKNQFSLQLNSVTPEDTAVYYCARDPFGVPFDIWGQGTMVTVSSASTKGPSVFPLAPCSRSTSESTAALGCLVKDYFPEPVTVSWNSGALTSGVHTFPAVLQSSGLYSLSSVVTVPSSNFGTQTYTCNVDHKPSNTKVDKTVERKCCVECPPCPAPPVAGPSVFLFPPKPKDTLMISRTPEVTCVVVDVSHEDPEVQFNWYVDGVEVHNAKTKPREEQFNSTFRVVSVLTVVHQDWLNGKEYKCKVSNKGLPAPIEKTISKTKGQPREPQVYTLPPSREEMTKNQVSLTCLVKGFYPSDIAVEWESNGQPENNYKTTPPMLDSDGSFFLYSKLTVDKSRWQQGNVFSCSVMHEALHNHYTQKSLSLSPGK
light: SYELIQPPSVSVAPGQTATITCAGDNLGKKRVHWYQQRPGQAPVLVIYDDSDRPSGIPDRFSASNSGNTATLTITRGEAGDEADYYCQVWDIATDHVVFGGGTKLTVLGQPKAAPSVTLFPPSSEELQANKATLVCLISDFYPGAVTVAWKADSSPVKAGVETTTPSKQSNNKYAASSYLSLTPEQWKSHRSYSCQVTHEGSTVEKTVAPTECS
notes: also called MoAb#1 (IgG2); 17N16_17N9
Selectivity over C1s (human MASP-2 [12]): > 5000 fold
Human C3 Assay IC50, 90% human serum (human MASP-2 [13]): 20 nM
Human C4 assay IC50, 90% human serum (human MASP-2 [13]): 30 nM

B10: 17D20 mother clone, wild type IgG4 format (antibody, V domains shown)
VH: QVTLKESGPVLVKPTETLTLTCTVSGFSLSRGKMGVSWIRQPPGKALEWLAHIFSSDEKSYRTSLKSRLTISKDTSKNQVVLTMTNMDPVDTATYYCARIRAGGIDYWGQGTLVTVSS
VL: QPVLTQPPSVSVSPGQTASITCSGDKLGDKFAYWYQQKPGHSPVLVIYQDNKRPSGIPGRFSGSNSGNTATLTISGTQAMDEADYYCQAWDSSTAVFGTGTKVTVLA
C3b deposition assay in 1% human serum, IC50 (human MASP-2 [8]): 22 nM
C4b deposition in 90% human serum, IC50 relative to the C3b deposition assay (human MASP-2 [14]): ~3 fold
C3 convertase assay using 1% human serum, IC50 (first experiment) (human MASP-2 [9]): 7.39 nM
C3 convertase assay using 1% human serum, IC50 (second experiment) (human MASP-2 [9]): 10.3 nM

B11: 17N16 mother clone, wild type IgG4 format (antibody, V domains shown)
VH: QVQLQQSGPGLVKPSQTLSLTCAISGDSVSSTSAAWNWIRQSPSRGLEWLGRTYYRSKWYNDYAVSVKSRITINPDTSKNQFSLQLNSVTPEDTAVYYCARDPFGVPFDIWGQGTMVTVSS
VL: SYVLTQPPSVSVAPGQTARITCGGNNIGSKNVHWYQQKPGQAPVLVVYDDSDRPSGIPERFSGSNSGNTATLTVSRVEAGDEADYYCQVWDTTTDHVVFGGGTKLTVL
C3b deposition assay in 1% human serum, IC50 (human MASP-2 [8]): ~20 nM
C3b deposition assay in 90% NHS, IC50 (human MASP-2 [14]): 15 nM
C3 convertase assay using 1% human serum, IC50 (first experiment) (human MASP-2 [9]): 5.45 nM
C3 convertase assay using 1% human serum, IC50 (second experiment) (human MASP-2 [9]): 3.09 nM
